Assay results taken from patent US20040106134A1 (Regeneron, published 2004).

Assays:
mouse Nodal = molecular target: T1, mouse Nodal (mouse, UniProt P43021 245-354, limits assumed, 35S-labelled); test: co-immunoprecipitation with anti-myc 9E10 beads, 35S-labelled Nodal
T1 construct: Provided as 35S-labelled protein expressed in X. laevis oocytes; also called mBMP-16; 35S-mouse Nodal
T1 sequence (looked up): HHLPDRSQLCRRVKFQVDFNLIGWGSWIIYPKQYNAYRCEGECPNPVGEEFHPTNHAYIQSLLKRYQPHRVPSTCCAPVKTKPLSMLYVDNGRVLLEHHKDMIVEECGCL
Experimental: (§1) Human DCR5-myc3 (1 ml of COS7 cell-derived serum-free conditioned media described supra) was co-incubated with human BMP-2 (1 μg/ml), or human BMP-4 (0.5 μg/1 ml) (R&D Systems), or human BMP-5 ([…]) (R&D Systems), or mouse Nodal (also known as mBMP-16; provided as ³⁵S-mouse Nodal expressed in X. laevis oocytes), or human BMP-11 (also known as human GDF-11; provided as ³⁵S-human BMP-11 expressed in X. laevis oocytes), in the absence or in the presence of human noggin protein hNGAB2 (described in published PCT application publication no. WO 99/03996, published Jan. 28, 1999, and incorporated in its entirety herein by reference), 2 to 5 μg/ml. The formation of a stable complex between human DCR5-myc3 and the different BMP family members was determined by immunoprecipitating human DCR5-myc3 and associated proteins using the anti-myc monoclonal antibody (9E10; 1 μg/ml) bound to Protein A Ultralink (Pierce). The binding reaction was carried out in the serum-free conditioned media containing 20 mM Tris pH 7.6, 150 mM NaCl, 0.1% Tween 20 (TBST), and 1 mg/ml bovine serum albumin (BSA). Binding was allowed to proceed for 1 hour at 25° C. in a reaction volume of 1.1 ml, with continuous mixing to keep the Protein A-Ultralink (Pierce) in suspension. […]

human BMP-11 = molecular target: T2, human BMP-11 (human, UniProt O95390 299-407, limits assumed, 35S-labelled); test: co-immunoprecipitation with anti-myc 9E10 beads, 35S-labelled BMP-11
T2 construct: Provided as 35S-labelled protein expressed in X. laevis oocytes; also called human GDF-11; GDF-11
T2 sequence (looked up): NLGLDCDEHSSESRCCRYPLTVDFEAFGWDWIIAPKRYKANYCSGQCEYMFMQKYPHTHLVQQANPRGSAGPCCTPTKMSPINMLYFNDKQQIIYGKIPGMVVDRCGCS
Experimental: as §1

human BMP-5 = molecular target: T3, human BMP-5 (human, UniProt P22003 317-454, limits assumed); test: co-immunoprecipitation with anti-myc 9E10 beads, western blot
T3 construct: Bought from R&D Systems
T3 sequence (looked up): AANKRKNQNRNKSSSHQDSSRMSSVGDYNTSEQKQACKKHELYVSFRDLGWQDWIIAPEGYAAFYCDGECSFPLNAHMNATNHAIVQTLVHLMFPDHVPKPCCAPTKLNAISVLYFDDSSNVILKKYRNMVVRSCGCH
Experimental: as §1

- binding result (mouse Nodal): no binding
- binding result (human BMP-11): no binding
B1: human DCR5-myc3 (other)
chain: RKNRPAGAIPSPYKDGSSNNSERWQHQIKEVLASSQEALVVTERKYLKSDWCKTQPLRQTVSEEGCRSRTILNRFCYGQCNSFYIPRHVKKEEESFQSCAFCKPQRVTSVLVELECPGLDPPFRLKKIQKVKQCRCMSVNLSDSDKQTGEQKLISEEDLGGEQKLISEEDLGGEQKLISEEDLGP
notes: Used as serum-free conditioned medium of transiently transfected COS7 cells; also called Human DCR5-myc3 protein; hDCR-5
- binding result (human BMP-5): no binding (tested: 1 g/ml (so in the source))
